Experiment [1] addresses T1, BSA-conjugated human SEMG2 (497-509) polypeptide (human, also: coupled to BSA, site not given here).
T1 peptide: QIEKLVEGKSQIQ
The experiment is described as follows: ELISA, OD450 against antibody concentration (FIG. 21). (In general: An ELISA detects its analyte on a solid surface through an enzyme-linked reagent.)

The target in experiment [2] is T2, SEMG2(497-509) polypeptide QIEKLVEGKSQIQ (human).
T2 peptide: QIEKLVEGKSQIQ
The experiment is described as follows: phage display screening on BSA- and KLH-coupled peptide, ELISA. An excerpt: Specifically, the preparation of polypeptide antigens and the screening of human natural antibody library were firstly performed. […] ELISA was used to select clones that bind to antigenic epitopes for preliminary screening. Different unique sequences were obtained after sequencing single colonies, sorted according to affinity sorting, and full-length antibodies were constructed from antigen-binding fragments (Fab) with relatively high affinity. The binding ability and blocking function tests were performed after purification, that is, the effect of the antibody on binding between SEMG2 and CD27 was determined by the ELISA experiment.

Experiment [3] has as its target T3, human SEMG2 full-length protein (human, UniProt Q02383 24-582, limits assumed).
T3 construct: also called SEMG2 protein; semenogelin 2
T3 sequence: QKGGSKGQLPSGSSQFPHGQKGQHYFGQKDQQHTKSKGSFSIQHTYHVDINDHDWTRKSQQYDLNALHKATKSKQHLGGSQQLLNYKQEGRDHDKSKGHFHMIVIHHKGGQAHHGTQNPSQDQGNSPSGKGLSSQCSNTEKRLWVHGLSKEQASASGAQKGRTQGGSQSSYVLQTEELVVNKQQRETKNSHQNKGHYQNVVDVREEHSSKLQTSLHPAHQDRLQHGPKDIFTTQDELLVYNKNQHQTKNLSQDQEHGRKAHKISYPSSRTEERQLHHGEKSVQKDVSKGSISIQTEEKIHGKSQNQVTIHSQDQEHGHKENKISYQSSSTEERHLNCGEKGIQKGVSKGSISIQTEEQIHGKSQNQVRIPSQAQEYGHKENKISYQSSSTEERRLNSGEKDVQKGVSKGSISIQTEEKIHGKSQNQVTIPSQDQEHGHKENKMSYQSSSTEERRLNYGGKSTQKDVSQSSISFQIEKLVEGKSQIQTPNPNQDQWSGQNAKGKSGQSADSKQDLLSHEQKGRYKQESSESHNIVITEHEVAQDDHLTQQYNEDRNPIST
The experiment is described as follows: ELISA on SEMG2; the EC50 table prints no unit, the axis is log (antibody concentration, nM).

Experiment [4] concerns the target T3, human SEMG2 full-length protein. The experiment is described as follows: biolayer interferometry (ForteBio Blitz or Gator). In outline: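 KD of antibodies binding human SEMG2 measured by biolayer interferometry, with antibody and SEMG2 in SD buffer. KD derived by binding-curve analysis.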
In general terms: In BLI a coated tip is dipped into the sample, and binding shifts an interference pattern.

No end group written: not given here.

B1: H88-93 (antibody, V domains shown)
VH: QITLKESGPTLVKPTQTLTLTCNFSGFSLTTSGVGVAWIRQPPGKALEWLALIYWDDDQRYSPSLKSRLSVTKHTSKDQVVLTMTNVGPVDTATYYCAHLSYGPGWGYYMDVWGNGTMVTVSS
VL: EIVLTQSPGTLSLSPGERASLSCRASQSVRNNYLAWYQQKPGQAPRLLIFGASNRATGIPDTFSGSGSGTDFTLTISRLEPEDFAVYYCQQYGHSPITFGQGTRLEIK
notes: Fully human full-length antibody built from a phage Fab
Take B1: the binding result in experiment [1] and in experiment [2] was “binds” each time. It took 0.0636 nM to reach a half-maximal effect in experiment [3] (EC50). The same molecule gave a Kd in experiment [4] of 4.6 nM.

A word on the EC50: it is the concentration needed to bring the measured effect to its halfway point. Usually Kd stands for the equilibrium constant for the complex coming apart. A higher Kd goes with a looser complex.

(Values after US20230080534A1 (SHANGHAI BIOTROY BIOTECHNIQUE, published 2023).)
